For data set [1] the following is noted: cited from earlier work; for t1/2 in the human eye: in vivo.
The next data set is described as follows: Solubility of axitinib. Type of data set: physicochemical.
The conditions of data set [2]: 1.25 mg intravitreal; cited from earlier work.
The test system of data set [3] is VEGF-induced vascular leakage. In words: VEGF challenge, vascular leakage scored by fluorescein angiography. It counts as in vivo, Dutch belted rabbits. To be noted: 1.25 mg Avastin alone (group 3); similar degree as control.

For “ranibizumab: anti-VEGF agent, large molecule”, the “t1/2 in the human eye” value in data set [1] is listed as “several days”.

`CNC(=O)c1ccccc1Sc1ccc2c(/C=C/c3ccccn3)n[nH]c2c1` [axitinib, N-methyl-2-[3-((E)-2-pyridin-2-yl-vinyl)-1H-indazol-6-ylsulfanyl]-benzamide]: the “Solubility of axitinib in 25% ethanol/75% water mix (v/v)” value in the data set “Solubility of axitinib” is given as “approximately 19 μg/mL”. Moreover, in data set [1] (patients, oral (Rugo et al.)), the “Clearance half-life (t1/2)” value is “a few hours”.

Take “aflibercept: anti-VEGF agent, large molecule”: in data set [1], the “t1/2 in the human eye” value was “several days”.

With “Avastin: anti-VEGF therapeutic, 1.25 mg intravitreal”, the Half-life in rabbits in data set [2] was 158 h. Further, the “Vascular leakage after VEGF challenge, late” value in data set [3] is given as “after 3 months vascular leakage re-occurred”.

The values are drawn from patent publication US20230390189A1, “OCULAR IMPLANT CONTAINING AN ACTIVE INGREDIENT” (OCULAR THERAPEUTIX, INC., priority 2020, published 2023).
